According to US20240270861A1 (DRAGONFLY THERAPEUTICS, published 2024):
Where a chain is given by its changes, count along the chain named.

B1: AB1080scFv displayed on yeast (scFv, V domains shown)
VH: EVQLVQSGGGVVQPGRSLRLSCAASGFTFSSYGMHWVRQAPGKCLEWVAVIWYDASNKYYGDSVKGRFTISRDNSKNTLYLQMNSLRDEDTAVYYCARRFTHLRGWYIEDYGLDVWGQGTTVTVSS
VL: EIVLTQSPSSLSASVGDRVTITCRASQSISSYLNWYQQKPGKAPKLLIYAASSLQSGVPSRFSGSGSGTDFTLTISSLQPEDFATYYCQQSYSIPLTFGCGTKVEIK
notes: scFv on yeast
B2: AB1084scFv displayed on yeast (scFv, V domains shown)
VH: B1 VH with S31M, H102R
VL: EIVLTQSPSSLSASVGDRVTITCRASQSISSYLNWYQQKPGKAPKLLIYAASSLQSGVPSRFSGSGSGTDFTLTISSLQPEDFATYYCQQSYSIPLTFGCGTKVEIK
notes: scFv on yeast
B3: AB1081scFv displayed on yeast (scFv, V domains shown)
VH: B1 VH with T28A, A55E, K76R, H102N, Y107I
VL: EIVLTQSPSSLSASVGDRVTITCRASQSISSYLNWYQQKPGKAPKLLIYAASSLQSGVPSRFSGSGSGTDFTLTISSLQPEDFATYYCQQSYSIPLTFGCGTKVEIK
notes: scFv on yeast
B4: AB1424/AB1612 F3′ TriNKET (bispecific antibody, human IgG1, kappa)
chain: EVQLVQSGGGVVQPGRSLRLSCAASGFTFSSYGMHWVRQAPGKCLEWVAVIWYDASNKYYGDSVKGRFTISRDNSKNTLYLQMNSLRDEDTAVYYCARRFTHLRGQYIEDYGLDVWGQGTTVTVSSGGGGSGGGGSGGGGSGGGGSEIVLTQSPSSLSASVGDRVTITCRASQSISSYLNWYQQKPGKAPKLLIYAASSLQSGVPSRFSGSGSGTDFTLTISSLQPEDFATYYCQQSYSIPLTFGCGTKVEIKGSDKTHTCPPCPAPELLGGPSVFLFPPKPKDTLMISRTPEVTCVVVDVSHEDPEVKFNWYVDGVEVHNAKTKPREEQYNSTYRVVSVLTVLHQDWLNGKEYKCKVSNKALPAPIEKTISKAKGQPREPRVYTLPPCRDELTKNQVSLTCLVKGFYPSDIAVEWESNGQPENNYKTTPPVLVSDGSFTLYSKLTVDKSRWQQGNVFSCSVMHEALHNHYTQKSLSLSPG
heavy: EVQLVESGGGLVKPGGSLRLSCAASGFTFSSYSMNWVRQAPGKGLEWVSSISSSSSYIYYADSVKGRFTISRDNAKNSLYLQMNSLRAEDTAVYYCARGAPIGAAAGWFDPWGQGTLVTVSSASTKGPSVFPLAPSSKSTSGGTAALGCLVKDYFPEPVTVSWNSGALTSGVHTFPAVLQSSGLYSLSSVVTVPSSSLGTQTYICNVNHKPSNTKVDKKVEPKSCDKTHTCPPCPAPELLGGPSVFLFPPKPKDTLMISRTPEVTCVVVDVSHEDPEVKFNWYVDGVEVHNAKTKPREEQYNSTYRVVSVLTVLHQDWLNGKEYKCKVSNKALPAPIEKTISKAKGQPREPQVCTLPPSRDELTENQVSLTCLVKGFYPSDIAVEWESNGQPENNYKTTPPVLDSDGSFFLYSWLTVDKSRWQQGNVFSCSVMHEALHNHYTQKSLSLSPG
light: DIQMTQSPSSVSASVGDRVTITCRASQGISSWLAWYQQKPGKAPKLLIYAASSLQSGVPSRFSGSGSGTDFTLTISSLQPEDFATYYCQQGVSFPRTFGGGTKVEIKRTVAAPSVFIFPPSDEQLKSGTASVVCLLNNFYPREAKVQWKVDNALQSGNSQESVTEQDSKDSTYSLSSTLTLSKADYEKHKVYACEVTHQGLSSPVTKSFNRGEC
notes: Chain S anti-BAFF-R scFv-CH2-CH3, Chain H and Chain L anti-NKG2D A49MI Fab; also called AB1612-002
B5: AB1424/AB1612 F3′ TriNKET FcγRsi (bispecific antibody)
chain: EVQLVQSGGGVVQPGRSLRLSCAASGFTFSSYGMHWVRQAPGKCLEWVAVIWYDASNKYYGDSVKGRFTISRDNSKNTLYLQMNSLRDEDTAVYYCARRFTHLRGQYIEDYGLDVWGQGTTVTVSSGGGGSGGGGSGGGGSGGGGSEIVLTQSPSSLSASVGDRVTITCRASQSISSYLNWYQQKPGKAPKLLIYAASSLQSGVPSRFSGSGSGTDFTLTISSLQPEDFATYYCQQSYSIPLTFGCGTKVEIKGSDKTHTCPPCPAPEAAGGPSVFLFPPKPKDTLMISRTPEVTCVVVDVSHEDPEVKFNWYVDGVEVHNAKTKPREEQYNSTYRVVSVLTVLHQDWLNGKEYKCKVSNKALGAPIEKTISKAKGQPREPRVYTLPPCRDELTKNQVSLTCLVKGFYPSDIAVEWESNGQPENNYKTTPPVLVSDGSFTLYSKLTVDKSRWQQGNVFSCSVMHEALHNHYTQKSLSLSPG
heavy: B4 heavy with L239A, L240A, P334G
light: B4 light
notes: Positions are EU numbers, not positions on the entries; also called AB1424/AB1612 F3′ TriNKET-Fc-si; AB1424/AB1612 F3′ TriNKET-Fc silenced

Columns and labels:
[1] = molecular target: T1, hBAFF-R-hFc-His fusion protein (human, UniProt Q96RJ3 1-78, biotinylated where used as yeast display probe); experiment: yeast display flow cytometry after challenge: 100 pM hBAFFR-Fc biotin for 1hr at RT, then 1 mM nonbiotinylated hBAFFR-Fc (as printed on the sheet)
T1 construct: also called hBAFFR-Fc; biotinylated hBAFF-R-hFc-His

cynomolgus CD16 = molecular target: T2, cynomolgus CD16 (cynomolgus monkey, UniProt Q8SPW2 17-208); experiment: SPR, kinetics fit
T2 construct: also called cyno CD16; FcγRIII (cynomolgus)
T2 sequence (Q8SPW2 17-208 limits assumed): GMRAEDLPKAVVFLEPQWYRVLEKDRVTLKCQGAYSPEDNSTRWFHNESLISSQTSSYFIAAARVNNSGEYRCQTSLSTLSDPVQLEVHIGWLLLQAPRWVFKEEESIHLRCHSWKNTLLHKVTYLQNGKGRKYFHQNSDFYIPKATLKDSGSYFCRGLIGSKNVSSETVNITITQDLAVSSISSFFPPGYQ

human CD16a V158 = molecular target: T3, human CD16a V158 (human, UniProt P08637 17-208); experiment: SPR, qualitative (Table 40 not given)
T3 construct: Recombinant receptor in SPR; in the cytotoxicity assays expressed on KHYG-1-CD16aV cells; also called hCD16aV; hCD16a V158
T3 sequence (P08637 17-208 F176V limits assumed): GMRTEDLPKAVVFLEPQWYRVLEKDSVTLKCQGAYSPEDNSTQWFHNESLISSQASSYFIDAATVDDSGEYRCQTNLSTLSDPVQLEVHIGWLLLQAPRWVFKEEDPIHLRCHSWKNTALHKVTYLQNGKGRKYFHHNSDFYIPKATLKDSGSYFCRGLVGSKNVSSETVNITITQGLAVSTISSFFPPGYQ

Row | Binder | Iana (drawn gate) [1] | also measured
1 | B1 | 23.4 % (unit not printed) | 
2 | B2 | 7.4 % (unit not printed) | 
3 | B3 | 27.2 % (unit not printed) | 
4 | B4 |  | Kd (cynomolgus CD16): 232 nM
5 | B5 |  | binding result (human CD16a V158): no binding
